In PMC10316081:

How the values were obtained:
[1] = target: Rag GTPase heterodimer (RagA-RagC), wild type (human) (UniProt Q7L523)
RagA-RagC(D201A) (human) = RagA-RagC(D201A) (human) (UniProt Q7L523)
[2] = target: RagA-RagC(D201A, D205A) (human) (UniProt Q7L523)
RagA-RagC(D205A) (human) = RagA-RagC(D205A) (human) (UniProt Q7L523)
[3] = target: Rag GTPase heterodimer (RagA-RagC), wild type (human) (UniProt Q7L523); remark: listed apart in the source
RagA-RagC(D205K) (human) = RagA-RagC(D205K) (human) (UniProt Q7L523)
RagA-RagC(D201R) (human) = RagA-RagC(D201R) (human) (UniProt Q7L523)
[4] = target: RagA-RagC(D201R, D205K) (human) (UniProt Q7L523)

| kcat of GATOR1-stimulated multiple turnover GTP hydrolysis by the Rag GTPase heterodimer (dual-loaded with GTP) [1] | kcat/KM of GATOR1[Depdc5(Y775A)]-stimulated multiple turnover GTP hydrolysis, fold decrease against wild-type Rag GTPases (fold decrease) (RagA-RagC(D201A) (human)) | kcat/KM of GATOR1[Depdc5(Y775A)]-stimulated multiple turnover GTP hydrolysis, fold decrease against wild-type Rag GTPases (fold decrease) [2] | kcat/KM of GATOR1[Depdc5(Y775A)]-stimulated multiple turnover GTP hydrolysis, fold decrease against wild-type Rag GTPases (fold decrease) (RagA-RagC(D205A) (human)) | kcat of GATOR1-stimulated single turnover GTP hydrolysis by the Rag GTPase heterodimer (singly loaded with GTP) [3] | kcat/KM of GATOR1[Depdc5(Y775A)]-stimulated multiple turnover GTP hydrolysis, fold decrease against wild-type Rag GTPases (fold decrease) (RagA-RagC(D205K) (human)) | kcat/KM of GATOR1[Depdc5(Y775A)]-stimulated multiple turnover GTP hydrolysis, fold decrease against wild-type Rag GTPases (fold decrease) (RagA-RagC(D201R) (human)) | kcat/KM of GATOR1[Depdc5(Y775A)]-stimulated multiple turnover GTP hydrolysis, fold decrease against wild-type Rag GTPases (fold decrease) [4] | KM of GATOR1-stimulated multiple turnover GTP hydrolysis, fold increase against GATOR1[Depdc5(Y775A)] (fold increase) [1] | kcat of GATOR1-stimulated multiple turnover GTP hydrolysis, fold decrease against GATOR1[Depdc5(Y775A)] (fold decrease) [1] | kcat/KM of GATOR1-stimulated multiple turnover GTP hydrolysis, fold decrease against GATOR1[Depdc5(Y775A)] (fold decrease) [1] | Substance |
| --- | --- | --- | --- | --- | --- | --- | --- | --- | --- | --- | --- |
| 0.00183 s⁻¹ | 2 | 7 | 4 | 0.000267 s⁻¹ | 22 | 7 | 80 |  |  |  | GATOR1[Depdc5(Y775A)] (from UniProt O75140 1-1603; Q8WTW4 1-380; Q12980 1-569) (complex) |
|  |  |  |  | 0.00015 s⁻¹ |  |  |  | 8 | 8 | 64 | GATOR1[Depdc5(Y775A, R1407D)] (from UniProt O75140 1-1603; Q8WTW4 1-380; Q12980 1-569) (complex) |
